Molecular target: T1, native hsp110 from murine tumor cells (Colon26 / colon 26, Meth A) and liver (mouse (murine colon 26 tumor), UniProt Q61699 2-858, limits assumed)
T1 construct: Native protein in cell extracts or chromatographic fractions; also called heat shock protein 110
Assay: immunoblot of the purified native hsp110 fraction (ion exchange and size exclusion) from Colon26 cells

T1 sequence (Q61699 2-858 limits assumed): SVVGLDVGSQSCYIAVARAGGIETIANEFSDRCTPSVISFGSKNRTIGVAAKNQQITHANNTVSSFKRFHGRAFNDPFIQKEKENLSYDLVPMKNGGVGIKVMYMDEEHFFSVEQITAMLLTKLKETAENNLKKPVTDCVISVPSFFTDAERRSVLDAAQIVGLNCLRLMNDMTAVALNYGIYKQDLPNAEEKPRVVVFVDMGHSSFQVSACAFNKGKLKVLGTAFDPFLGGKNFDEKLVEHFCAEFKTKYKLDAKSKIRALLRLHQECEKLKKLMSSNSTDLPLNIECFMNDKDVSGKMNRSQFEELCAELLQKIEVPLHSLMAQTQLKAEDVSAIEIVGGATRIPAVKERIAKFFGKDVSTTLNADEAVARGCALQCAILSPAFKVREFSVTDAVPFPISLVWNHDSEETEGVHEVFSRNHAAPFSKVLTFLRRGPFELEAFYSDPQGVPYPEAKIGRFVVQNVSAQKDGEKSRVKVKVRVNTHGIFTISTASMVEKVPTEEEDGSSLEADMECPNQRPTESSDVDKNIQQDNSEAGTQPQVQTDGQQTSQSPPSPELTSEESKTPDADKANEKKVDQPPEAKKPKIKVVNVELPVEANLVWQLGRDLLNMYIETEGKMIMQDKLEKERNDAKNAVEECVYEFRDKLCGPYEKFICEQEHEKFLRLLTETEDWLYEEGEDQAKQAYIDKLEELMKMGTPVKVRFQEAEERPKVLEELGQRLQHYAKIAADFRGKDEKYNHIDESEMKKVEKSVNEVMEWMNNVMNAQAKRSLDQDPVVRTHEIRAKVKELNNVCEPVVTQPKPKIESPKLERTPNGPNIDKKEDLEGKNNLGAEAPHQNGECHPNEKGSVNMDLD

B1: T-complex polypeptide1 (TCP-1) in Colon26 cells (other)
chain: not shown
binding result: no binding

— US20080103095A1 (HEALTH RESEARCH, published 2008)
